Numbered stars: 1 amine (or outer) side, 2 acyl side, 3 side chain; on linkers, the order of the positions; unused ones are H or OH. Bridge positions count the residues as written; N and C are the ends. Square brackets hold non-standard residues; d marks the D form. Ends that are not written are not given here. TBMB = c1c(C[*:1])cc(C[*:3])cc1C[*:2]; Sar = CNCC(=O)O
B1: 06-63 T (peptide)
peptide: ACADPWACLFRRPCA
modifications: linker 2-8-14 via TBMB; not fully specified (N-terminus, C-terminus)
B2: 1B1 (peptide)
peptide: ACAWPAKCLTRELCA
modifications: linker 2-8-14 via TBMB; not fully specified (N-terminus, C-terminus)
B3: 06-59 (peptide)
peptide: ACRWPARCLTTSLCA
modifications: linker 2-8-14 via TBMB; not fully specified (N-terminus, C-terminus)
B4: 06-34-03 - N-MeGly1,6 (peptide)
peptide: AC[Sar]WPARC[Sar]HQDLCA
modifications: linker 2-8-14 via TBMB; not fully specified (N-terminus, C-terminus)
notes: also called AC(N-MeG)WPARC(N-MeG)HQDLCA
B5: 06-57 (peptide)
peptide: ACSWPARCNHQDLCA
modifications: linker 2-8-14 via TBMB; not fully specified (N-terminus, C-terminus)
B6: 06-09 (peptide)
peptide: ACTWPARCTHQNWCA
modifications: linker 2-8-14 via TBMB; not fully specified (N-terminus, C-terminus)
B7: 06-A2* (peptide)
peptide: ACTWPARCTMQNWCA
modifications: linker 2-8-14 via TBMB; not fully specified (N-terminus, C-terminus)
B8: 06-34-03 - Ala1,6 (peptide)
peptide: ACAWPARCAHQDLCA
modifications: linker 2-8-14 via TBMB; not fully specified (N-terminus, C-terminus)
notes: also called R1A/V6A
B9: 2A10 (peptide)
peptide: ACTYPYKCLHQNLCA
modifications: linker 2-8-14 via TBMB
B10: 06-54 (2A2) T (peptide)
peptide: ACRWPARCTHQNYCA
modifications: linker 2-8-14 via TBMB; not fully specified (N-terminus, C-terminus)
B11: 06-157 (peptide)
peptide: ACNWPYRCLHTDLCA
modifications: linker 2-8-14 via TBMB; not fully specified (N-terminus, C-terminus)
B12: 1F7 (peptide)
peptide: ACGGYNNCRAFSYCA
modifications: linker 2-8-14 via TBMB; not fully specified (N-terminus, C-terminus)
B13: CSWPARCTHQDLC (peptide)
peptide: CSWPARCTHQDLC
modifications: linker 1-7-13 via TBMB
notes: on phage
B14: CSQVVGCTHQDLC (peptide)
peptide: CSQVVGCTHQDLC
modifications: linker 1-7-13 via TBMB
notes: on phage
B15: CSLFDHCTHQDLC (peptide)
peptide: CSLFDHCTHQDLC
modifications: linker 1-7-13 via TBMB
notes: on phage
B16: CSHRRWCTHQDLC (peptide)
peptide: CSHRRWCTHQDLC
modifications: linker 1-7-13 via TBMB (inferred)
notes: on phage
B17: CSWPYRCTHQDLC (peptide)
peptide: CSWPYRCTHQDLC
modifications: linker 1-7-13 via TBMB
notes: on phage
B18: CSWPSRCTHQDLC (peptide)
peptide: CSWPSRCTHQDLC
modifications: linker 1-7-13 via TBMB
notes: on phage
B19: CSYPWRCTHQDLC (peptide)
peptide: CSYPWRCTHQDLC
modifications: linker 1-7-13 via TBMB
notes: on phage
B20: CSWHARCTHQDLC (peptide)
peptide: CSWHARCTHQDLC
modifications: linker 1-7-13 via TBMB
notes: on phage
B21: CSLPIRCTHQDLC (peptide)
peptide: CSLPIRCTHQDLC
modifications: linker 1-7-13 via TBMB
notes: on phage
B22: CSYPIRCTHQDLC (peptide)
peptide: CSYPIRCTHQDLC
modifications: linker 1-7-13 via TBMB
notes: on phage
B23: CSHPFRCTHQDLC (peptide)
peptide: CSHPFRCTHQDLC
modifications: linker 1-7-13 via TBMB (inferred)
notes: on phage
B24: CSFSYKCTHQDLC (peptide)
peptide: CSFSYKCTHQDLC
modifications: linker 1-7-13 via TBMB (inferred)
notes: on phage
B25: CSWPFRCTHQDLC (peptide)
peptide: CSWPFRCTHQDLC
modifications: linker 1-7-13 via TBMB
notes: on phage
B26: CSIPFKCTHQDLC (peptide)
peptide: CSIPFKCTHQDLC
modifications: linker 1-7-13 via TBMB (inferred)
notes: on phage
B27: CSYPYRCTHQDLC (peptide)
peptide: CSYPYRCTHQDLC
modifications: linker 1-7-13 via TBMB
notes: on phage
B28: CSYPFRCTHQDLC (peptide)
peptide: CSYPFRCTHQDLC
modifications: linker 1-7-13 via TBMB
notes: on phage
B29: CSMPYRCTHQDLC (peptide)
peptide: CSMPYRCTHQDLC
modifications: linker 1-7-13 via TBMB
notes: on phage
B30: CSWWARCTHQDLC (peptide)
peptide: CSWWARCTHQDLC
modifications: linker 1-7-13 via TBMB
notes: on phage
B31: CSWAARCTHQDLC (peptide)
peptide: CSWAARCTHQDLC
modifications: linker 1-7-13 via TBMB
notes: on phage
B32: CSWSARCTHQDLC (peptide)
peptide: CSWSARCTHQDLC
modifications: linker 1-7-13 via TBMB
notes: on phage
B33: CSWPYKCTHQDLC (peptide)
peptide: CSWPYKCTHQDLC
modifications: linker 1-7-13 via TBMB
notes: on phage
B34: CSWQARCTHQDLC (peptide)
peptide: CSWQARCTHQDLC
modifications: linker 1-7-13 via TBMB
notes: on phage
B35: CSWLARCTHQDLC (peptide)
peptide: CSWLARCTHQDLC
modifications: linker 1-7-13 via TBMB
notes: on phage
B36: CSHPYRCTHQDLC (peptide)
peptide: CSHPYRCTHQDLC
modifications: linker 1-7-13 via TBMB (inferred)
notes: on phage
B37: CSWSYRCTHQDLC (peptide)
peptide: CSWSYRCTHQDLC
modifications: linker 1-7-13 via TBMB
notes: on phage

Target: T1, human plasma Kallikrein (human, UniProt P03952 20-638)
T1 construct: also called hPK; human PK
Assay: enzyme inhibition
Protocol: Functional enzyme assays were conducted in 10 mM Tris HCl, 150 mM NaCl, 10 mM MgCl2, 1 mM CaCl₂) and 1 mg/mL BSA (all Sigma UK) pH7.4 at 25° C. in solid black 96 well plates. […] Release of AMC was measured using a Pherastar FS (BMG Labtech), excitation 360 nm, emission 460 nm. The rate of the linear phase of the reaction, typically 5 to 45 minutes, was calculated in MARS data analysis software (BMG labtech). The rate was then used to calculate the IC50 and Ki in Prism (GraphPad).

T1 sequence (P03952 20-638 limits assumed): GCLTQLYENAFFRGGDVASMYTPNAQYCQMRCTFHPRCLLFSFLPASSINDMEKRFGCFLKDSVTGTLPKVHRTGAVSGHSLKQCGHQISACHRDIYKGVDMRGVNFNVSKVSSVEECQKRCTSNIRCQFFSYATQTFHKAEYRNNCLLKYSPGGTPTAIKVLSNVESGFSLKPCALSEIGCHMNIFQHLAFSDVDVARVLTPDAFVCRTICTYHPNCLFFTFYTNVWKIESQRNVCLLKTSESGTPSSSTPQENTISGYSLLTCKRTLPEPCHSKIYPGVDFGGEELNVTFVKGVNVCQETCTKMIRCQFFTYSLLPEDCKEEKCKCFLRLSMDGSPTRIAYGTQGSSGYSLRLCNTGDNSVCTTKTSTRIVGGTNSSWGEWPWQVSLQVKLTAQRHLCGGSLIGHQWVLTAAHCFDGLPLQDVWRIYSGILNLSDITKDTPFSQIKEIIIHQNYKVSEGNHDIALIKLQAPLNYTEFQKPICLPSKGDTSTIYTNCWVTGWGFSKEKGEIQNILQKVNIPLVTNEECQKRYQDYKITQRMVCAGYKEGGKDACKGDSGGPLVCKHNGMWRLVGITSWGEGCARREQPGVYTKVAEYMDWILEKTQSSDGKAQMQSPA

Binder	Ki [nM]
B1	1280
B2	8.1
B3	0.5
B4	24.8
B5	0.4
B6	1.2
B7	181
B8	0.147
B9	4.98
B10	0.49
B11	3.3
B12	2.2

Target: T1, human plasma Kallikrein
Assay: phage binding assay

Binder	BINDING ASSAY SIGNAL
B13	110

Target: T1, human plasma Kallikrein
Assay: phage binding assay
Remark: another data set of the same source
Protocol: Library transformant colonies, or selection output colonies, were picked and grown as individual cultures in 2TY broth containing selective antibiotic. The picked colonies were DNA-sequenced using a QIAgen PyroMark Q96 DNA sequencer to reveal the amino-acid substitution present in each clone, and were assayed for human plasma Kallikrein binding as follows. The phage-containing supernatant was harvested from the culture and phage were cyclised with tris bromomethyl benzene (TBMB) based on the methods of Heinis et al (Nature Chemical Biology vol. 5 pp 502-507 (2009)). The purified phage from this process were assayed for binding to biotinylated human plasma Kallikrein using a homogeneous plate-based binding assay; assay read-out measured on a BMG Labtech Pherastar FS plate reader. The quantitative binding data from duplicate assay samples was averaged (mean) and expressed as signal:background. […] The assay data was correlated with the peptide sequences.
Selections against human plasma Kallikrein were performed at a variety of stringencies (see Phage selections' in Methods above). All output sequences were identified and analysed for target binding (see ‘Randomisation of peptide domains—Assay of binding of individual clones’ in Methods above). Table 17 lists each unique sequence, its relative abundance in the selection output (frequency), and a rank number according to target binding strength.

Binder	RANK (Kallikrein binding)
B14	38
B15	40
B16	41
B13	1
B17	10
B18	2
B19	33
B20	24
B21	30
B22	18
B23	9
B24	35
B25	14
B26	32
B27	26
B28	21
B29	31
B30	27
B31	7
B32	19
B33	28
B34	42
B35	4
B36	8
B37	36

Reference: US20180362585A1 (Bicycle, published 2018)
